# Article PMC9091064
# Tests used:
# [1] = biological target: SARS-CoV-2 3CLpro R4Q (SARS-CoV-2); experiment: SEC
# [2] = biological target: SARS-CoV-2 3CLpro E14Q (SARS-CoV-2); experiment: SEC
# [3] = biological target: SARS-CoV-2 3CLpro S10C (SARS-CoV-2); experiment: SEC
# [4] = biological target: SARS-CoV-2 3CLpro E14D (SARS-CoV-2); experiment: SEC
# [5] = biological target: SARS-CoV-2 3CLpro S10A (SARS-CoV-2); experiment: SEC
# [6] = biological target: SARS-CoV-2 3CLpro R4A (SARS-CoV-2); experiment: SEC
# [7] = biological target: SARS-CoV-2 3CLpro E290Y (SARS-CoV-2); experiment: SEC
# [8] = biological target: SARS-CoV-2 3CLpro S139A (SARS-CoV-2); experiment: SEC
# [9] = biological target: SARS-CoV-2 3CLpro E290D (SARS-CoV-2); experiment: SEC
# [10] = biological target: SARS-CoV-2 3CLpro E14A (SARS-CoV-2); experiment: SEC
# [11] = biological target: SARS-CoV-2 3CLpro Q299N (SARS-CoV-2); experiment: SEC
# [12] = biological target: SARS-CoV-2 3CLpro S10T (SARS-CoV-2); experiment: SEC
# [13] = biological target: SARS-CoV-2 3CLpro E290Q (SARS-CoV-2); experiment: SEC
# [14] = biological target: SARS-CoV-2 3CLpro E290A (SARS-CoV-2); experiment: SEC
# [15] = biological target: SARS-CoV-2 3CLpro Q299E (SARS-CoV-2); experiment: SEC
# [16] = biological target: SARS-CoV-2 3CLpro K12A (SARS-CoV-2)
# [17] = biological target: SARS-CoV-2 3CLpro K12A (SARS-CoV-2); experiment: SEC
# [18] = biological target: SARS-CoV-2 3CLpro S1A (SARS-CoV-2); experiment: SEC
# [19] = biological target: SARS-CoV-2 3CLpro Q299A (SARS-CoV-2); experiment: SEC
# [20] = biological target: SARS-CoV-2 3CLpro E14S (SARS-CoV-2); experiment: SEC
substance,measurement,setting,value
SARS-CoV-2 3CLpro R4Q (enzyme),stoichiometry N,[1],2
SARS-CoV-2 3CLpro E14Q (enzyme),stoichiometry N,[2],2
SARS-CoV-2 3CLpro S10C (enzyme),stoichiometry N,[3],2
SARS-CoV-2 3CLpro E14D (enzyme),stoichiometry N,[4],2
SARS-CoV-2 3CLpro S10A (enzyme),stoichiometry N,[5],2
SARS-CoV-2 3CLpro R4A (enzyme),stoichiometry N,[6],2
SARS-CoV-2 3CLpro E290Y (enzyme),stoichiometry N,[7],2
SARS-CoV-2 3CLpro S139A (enzyme),stoichiometry N,[8],2
SARS-CoV-2 3CLpro E290D (enzyme),stoichiometry N,[9],2
SARS-CoV-2 3CLpro E14A (enzyme),stoichiometry N,[10],2
SARS-CoV-2 3CLpro Q299N (enzyme),stoichiometry N,[11],2
SARS-CoV-2 3CLpro S10T (enzyme),stoichiometry N,[12],2
SARS-CoV-2 3CLpro E290Q (enzyme),stoichiometry N,[13],2
SARS-CoV-2 3CLpro E290A (enzyme),stoichiometry N,[14],2
SARS-CoV-2 3CLpro Q299E (enzyme),stoichiometry N,[15],2
SARS-CoV-2 3CLpro K12A (enzyme),"relative proteolytic activity on the FRET peptide substrate, percent of WT",[16],60%
same,share of the monomer form,[17],60%
same,stoichiometry N,[17],2
SARS-CoV-2 3CLpro S1A (enzyme),stoichiometry N,[18],2
SARS-CoV-2 3CLpro Q299A (enzyme),stoichiometry N,[19],2
SARS-CoV-2 3CLpro E14S (enzyme),stoichiometry N,[20],2
